Patent publication US20240058467A1 (SUTRO BIOPHARMA, published 2024)
Read-outs that look alike come from different tables or passages of the source.

Tests used:
Assay in all cases: cell-based or functional assay
human ROR1 (hROR1) = human ROR1 (hROR1) (human, UniProt Q01973 30-937)
[1] = molecular target: T1, ROR1 antigen expressed on ROR1 positive Ntera-2 cells (UniProt Q01973 30-937)
[2] = molecular target: T1, ROR1 antigen expressed on ROR1 positive …; remark: listed apart in the source
[3] = molecular target: T1, ROR1 antigen expressed on ROR1 positive …; remark: listed apart in the source
[4] = molecular target: T1, ROR1 antigen expressed on ROR1 positive …; remark: listed apart in the source

B1: Conjugate 4 (2188-D04-Y180/F404/K42/E161-LP1) (antibody, human IgG1, kappa)
heavy: MEVQLVESGGGLVQPGGSLRLSCAASGFNISDYDIHWVRQAPGKGLEWVGGIDPADGSTDYADSVKGRFTISADTSKNTAYLQMNSLRAEDTAVYYCARDYGVYDYWGQGTLVTVSSASTKGPSVFPLAPSSKSTSGGTAALGCLVKDYFPEPVTVSWNSGALTSGVHTFPAVLQSSGLSLSSVVTVPSSSLGTQTYICNVNHKPSNTKVDKKVEPKSCDKTHTCPPCPAPELLGGPSVFLFPPKPKDTLMISRTPEVTCVVVDVSHEDPEVKFNWYVDGVEVHNAKTKPREEQYNSTYRVVSVLTVLHQDWLNGKEYKCKVSNKALPAPIEKTISKAKGQPREPQVYTLPPSREEMTKNQVSLTCLVKGFYPSDIAVEWESNGQPENNYKTTPPVLDSDGSFLYSKLTVDKSRWQQGNVFSCSVMHEALHNHYTQKSLSLSPGK
light: MDIQMTQSPSSLSASVGDRVTITCRASQDVNTAVAWYQQKPGAPKLLIYSASFLYSGVPSRFSGSRSGTDFTLTISSLQPEDFATYYCQQHYTTPPTFGQGTKVEIKRTVAAPSVFIFPPSDEQLKSGTASVVCLLNNFYPREAKVQWKVDNALQSGNSQSVTEQDSKDSTYSLSSTLTLSKADYEKHKVYACEVTHQGLSSPVTKSFNRGEC
modifications: pAMF in place of K42 and E161, printed '*', conjugated to LP1; pAMF in place of Y180 and F404 (EU), printed '*', conjugated to LP1
- NTERA-2 cell killing EC50 (human ROR1 (hROR1)): 0.022 nM
- NTERA-2 cell killing Span (human ROR1 (hROR1)): 63%

B2: Conjugate 13: D04-Y180/F404/K42/E161-LP6 (antibody, human IgG1, kappa)
heavy: B1 heavy
light: B1 light
modifications: pAMF at K42 and E161 (printed * in the sequence), linked to LP6; pAMF at Y180 and F404 (printed * in the sequence), linked to LP6
- NTERA-2 cell killing EC50 [1]: 0.028 nM
- NTERA-2 cell killing Span (%) [1]: 38%

B3: Conjugate 14: D04-Y180/F404/K42/E161-LP12 (antibody, human IgG1, kappa)
heavy: B1 heavy
light: B1 light
modifications: pAMF at K42 and E161 (printed * in the sequence), linked to LP12; pAMF at Y180 and F404 (printed * in the sequence), linked to LP12
- NTERA-2 cell killing EC50 [1]: 0.036 nM
- NTERA-2 cell killing Span (%) [1]: 56%

B4: Conjugate 33: D04-Y180F404/K42/E161-LP17 (antibody, human IgG1, kappa)
heavy: B1 heavy
light: B1 light
modifications: pAMF at K42 and E161 (printed * in the sequence), linked to LP17; pAMF at Y180 and F404 (printed * in the sequence), linked to LP17
- NTERA-2 cell killing EC50 [2]: 0.019 nM
- NTERA-2 cell killing Span (%) [2]: 87%

B5: Conjugate 15: D04-Y180/F404/K42/E161-LP13 (antibody, human IgG1, kappa)
heavy: B1 heavy
light: B1 light
modifications: pAMF at K42 and E161 (printed * in the sequence), linked to LP13; pAMF at Y180 and F404 (printed * in the sequence), linked to LP13
- NTERA-2 cell killing EC50 [1]: 0.072 nM

B6: Conjugate 35: D04-Y180F404/K42/E161-LP19 (antibody, human IgG1, kappa)
heavy: B1 heavy
light: B1 light
modifications: pAMF at K42 and E161 (printed * in the sequence), linked to LP19; pAMF at Y180 and F404 (printed * in the sequence), linked to LP19
- NTERA-2 cell killing EC50 [2]: 0.236 nM
- NTERA-2 cell killing Span (%) [2]: 77%

B7: Conjugate 11: D04-Y180/F404/K42/E161-LP7 (antibody, human IgG1, kappa)
heavy: B1 heavy
light: B1 light
modifications: pAMF at K42 and E161 (printed * in the sequence), linked to LP7; pAMF at Y180 and F404 (printed * in the sequence), linked to LP7
- NTERA-2 cell killing EC50 [1]: > 10 nM
- NTERA-2 cell killing Span (%) [1]: < 10%

B8: Conjugate 32: D04-Y180F404/K42/E161-LP16 (antibody, human IgG1, kappa)
heavy: B1 heavy
light: B1 light
modifications: pAMF at K42 and E161 (printed * in the sequence), linked to LP16; pAMF at Y180 and F404 (printed * in the sequence), linked to LP16
- NTERA-2 cell killing EC50 [2]: 0.023 nM
- NTERA-2 cell killing Span (%) [2]: 86%

B9: Conjugate 31: D04-Y180F404/K42/E161-LP15 (antibody, human IgG1, kappa)
heavy: B1 heavy
light: B1 light
modifications: pAMF at K42 and E161 (printed * in the sequence), linked to LP15; pAMF at Y180 and F404 (printed * in the sequence), linked to LP15
- NTERA-2 cell killing EC50 [2]: 0.018 nM
- NTERA-2 cell killing Span (%) [2]: 87%

B10: Conjugate 38: D04-Y180F404/K42/E161-LP23 (antibody, human IgG1, kappa)
heavy: B1 heavy
light: B1 light
modifications: pAMF at K42 and E161 (printed * in the sequence), linked to LP23; pAMF at Y180 and F404 (printed * in the sequence), linked to LP23
- NTERA-2 cell killing EC50 [2]: 0.108 nM
- NTERA-2 cell killing Span (%) [2]: 64%

B11: Conjugate 7 (2188-D04-Y180/F404/K42/E161-LP10) (antibody, human IgG1, kappa)
heavy: B1 heavy
light: B1 light
modifications: pAMF in place of K42 and E161, printed '*', conjugated to LP10; pAMF in place of Y180 and F404 (EU), printed '*', conjugated to LP10
- NTERA-2 cell killing EC50 (human ROR1 (hROR1)): 0.048 nM
- NTERA-2 cell killing Span (human ROR1 (hROR1)): 94%

B12: Conjugate 9: D04-Y180/F404/K42/E161-LP3 (antibody, human IgG1, kappa)
heavy: B1 heavy
light: B1 light
modifications: pAMF at K42 and E161 (printed * in the sequence), linked to LP3; pAMF at Y180 and F404 (printed * in the sequence), linked to LP3
- NTERA-2 cell killing EC50 [3]: 0.119 nM
- NTERA-2 cell killing Span (%) [3]: 63%
- NTERA-2 cell killing EC50 [1]: 0.027 nM
- NTERA-2 cell killing Span (%) [1]: 94%

B13: Conjugate 30: D04-Y180F404/K42/E161-LP14 (antibody, human IgG1, kappa)
heavy: B1 heavy
light: B1 light
modifications: pAMF at K42 and E161 (printed * in the sequence), linked to LP14; pAMF at Y180 and F404 (printed * in the sequence), linked to LP14
- NTERA-2 cell killing EC50 [2]: 0.02 nM
- NTERA-2 cell killing Span (%) [2]: 88%

B14: Conjugate 10: D04-Y180/F404/K42/E161-LP4 (antibody, human IgG1, kappa)
heavy: B1 heavy
light: B1 light
modifications: pAMF at K42 and E161 (printed * in the sequence), linked to LP4; pAMF at Y180 and F404 (printed * in the sequence), linked to LP4
- NTERA-2 cell killing EC50 [3]: 0.003 nM
- NTERA-2 cell killing Span (%) [3]: 96%
- NTERA-2 cell killing EC50 [1]: 0.004 nM
- NTERA-2 cell killing Span (%) [1]: 77%
- NTERA-2 cell killing EC50 [2]: 0.013 nM
- NTERA-2 cell killing Span (%) [2]: 89%
- NTERA-2 cell killing EC50 [4]: 0.019 nM
- NTERA-2 cell killing Span (%) [4]: 86%

B15: Conjugate 16: D04-Y180/F404/K42/E161-LP34 (antibody, human IgG1, kappa)
heavy: B1 heavy
light: B1 light
modifications: pAMF at K42 and E161 (printed * in the sequence), linked to LP34; pAMF at Y180 and F404 (printed * in the sequence), linked to LP34
- NTERA-2 cell killing EC50 [1]: > 10 nM
- NTERA-2 cell killing Span (%) [1]: < 10%

B16: Conjugate 8: D04-Y180/F404/K42/E161-LP2 (antibody, human IgG1, kappa)
heavy: B1 heavy
light: B1 light
modifications: pAMF at K42 and E161 (printed * in the sequence), linked to LP2; pAMF at Y180 and F404 (printed * in the sequence), linked to LP2
- NTERA-2 cell killing EC50 [1]: > 10 nM
- NTERA-2 cell killing Span (%) [1]: < 10%

B17: Conjugate 40: D04-Y180F404/K42/E161-LP21 (antibody, human IgG1, kappa)
heavy: B1 heavy
light: B1 light
modifications: pAMF at K42 and E161 (printed * in the sequence), linked to LP21; pAMF at Y180 and F404 (printed * in the sequence), linked to LP21
- NTERA-2 cell killing EC50 [2]: 0.076 nM
- NTERA-2 cell killing Span (%) [2]: 68%

B18: Conjugate 39: D04-Y180F404/K42/E161-LP22 (antibody, human IgG1, kappa)
heavy: B1 heavy
light: B1 light
modifications: pAMF at K42 and E161 (printed * in the sequence), linked to LP22; pAMF at Y180 and F404 (printed * in the sequence), linked to LP22
- NTERA-2 cell killing EC50 [2]: 0.215 nM
- NTERA-2 cell killing Span (%) [2]: 54%

B19: Conjugate 36: D04-Y180F404/K42/E161-LP20 (antibody, human IgG1, kappa)
heavy: B1 heavy
light: B1 light
modifications: pAMF at K42 and E161 (printed * in the sequence), linked to LP20; pAMF at Y180 and F404 (printed * in the sequence), linked to LP20
- NTERA-2 cell killing EC50 [2]: 0.222 nM
- NTERA-2 cell killing Span (%) [2]: 72%

B20: Conjugate 4: D04-Y180/F404/K42/E161-LP1 (antibody, human IgG1, kappa)
heavy: B1 heavy
light: B1 light
modifications: pAMF at K42 and E161 (printed * in the sequence), linked to LP1; pAMF at Y180 and F404 (printed * in the sequence), linked to LP1
- NTERA-2 cell killing EC50 [1]: 0.023 nM
- NTERA-2 cell killing Span (%) [1]: 58%
- NTERA-2 cell killing EC50 [2]: 0.05 nM
- NTERA-2 cell killing Span (%) [2]: 65%
- NTERA-2 cell killing EC50 [4]: 0.067 nM
- NTERA-2 cell killing Span (%) [4]: 60%

B21: Conjugate 12: D04-Y180/F404/K42/E161-LP5 (antibody, human IgG1, kappa)
heavy: B1 heavy
light: B1 light
modifications: pAMF at K42 and E161 (printed * in the sequence), linked to LP5; pAMF at Y180 and F404 (printed * in the sequence), linked to LP5
- NTERA-2 cell killing Span (%) [1]: 94%

B22: Conjugate 34: D04-Y180F404/K42/E161-LP18 (antibody, human IgG1, kappa)
heavy: B1 heavy
light: B1 light
modifications: pAMF at K42 and E161 (printed * in the sequence), linked to LP18; pAMF at Y180 and F404 (printed * in the sequence), linked to LP18
- NTERA-2 cell killing EC50 [2]: 0.373 nM
- NTERA-2 cell killing Span (%) [2]: 73%
